Like-named read-outs stand apart in the source and are kept apart here.
Tests used:
Assay type in all cases: binding
SARS-CoV-2 gRNA = details: […]; LC-MS/MS; Probe I sample (first 199 lines of Table 2)
gRNA of HCoV-OC43 = details: for target (spectral count, OC43 Probe I RNP capture) / background (spectral count, no-probe control): type n_48_v: 48 hours post-infection; for target (spectral count, OC43 Probe I RNP capture): infected cells, unweighted spectral count; for background (spectral count, no-probe control): no-probe control on infected cells; for target (spectral count) / background (spectral count): type g_36_m, 36 hpi, Probe I; for target (spectral count): HCoV-OC43-infected HCT-8 cells; for background (spectral count): uninfected-probe control
[1] = system: SARS-CoV-2 gRNA and sgRNAs; details: for target (unweighted spectral count in RNP capture): Probe II capture, LC-MS/MS LFQ; for background (unweighted spectral count in control): no-probe control pull-down, used as background for Probe II; for target (unweighted spectral count of the protein in the RNP capture experiment): LC-MS/MS label-free quantification, probe pool not given; for back-ground (unweighted spectral count of the protein in the control experiment): protein background of the control (e.g. no-probe) experiment
HCoV-OC43 gRNA and sgRNA = details: for target (unweighted spectral count, OC43 Probe II capture): type n_36_v, FDR<10%; for target (unweighted spectral count, OC43 Probe II capture) / target (unweighted spectral count): tested against no-probe control; for target (unweighted spectral count): OC43 Probe II, infected cells; for target (unweighted spectral count, OC43 Probe II) / background (unweighted spectral count, no-probe control): type n_48_v, 48 hpi; for target (unweighted spectral count, OC43 Probe II): OC43 Probe II capture on infected cells; for background (unweighted spectral count, no-probe control): no-probe control on infected cells

B1: HNRNPM (protein, UniProt P52272 2-730, looked up)
Heterogeneous nuclear …: AAGVEAAAEVAATEIKMEEESGAPGVPSGNGAPGPKGEGERPAQNEKRKEKNIKRGGNRFEPYANPTKRYRAFITNIPFDVKWQSLKDLVKEKVGEVTYVELLMDAEGKSRGCAVVEFKMEESMKKAAEVLNKHSLSGRPLKVKEDPDGEHARRAMQKVMATTGGMGMGPGGPGMITIPPSILNNPNIPNEIIHALQAGRLGSTVFVANLDYKVGWKKLKEVFSMAGVVVRADILEDKDGKSRGIGTVTFEQSIEAVQAISMFNGQLLFDRPMHVKMDERALPKGDFFPPERPQQLPHGLGGIGMGLGPGGQPIDANHLNKGIGMGNIGPAGMGMEGIGFGINKMGGMEGPFGGGMENMGRFGSGMNMGRINEILSNALKRGEIIAKQGGGGGGGSVPGIERMGPGIDRLGGAGMERMGAGLGHGMDRVGSEIERMGLVMDRMGSVERMGSGIERMGPLGLDHMASSIERMGQTMERIGSGVERMGAGMGFGLERMAAPIDRVGQTIERMGSGVERMGPAIERMGLSMERMVPAGMGAGLERMGPVMDRMATGLERMGANNLERMGLERMGANSLERMGLERMGANSLERMGPAMGPALGAGIERMGLAMGGGGGASFDRAIEMERGNFGGSFAGSFGGAGGHAPGVARKACQIFVRNLPFDFTWKMLKDKFNECGHVLYADIKMENGKSKGCGVVKFESPEVAERACRMMNGMKLSGREIDVRIDRNA
B1 was tested, and the “target (unweighted spectral count of the protein in the RNP capture)” value (SARS-CoV-2 gRNA) was 71, the “target (spectral count, OC43 Probe I RNP capture)” value (gRNA of HCoV-OC43) was 65 and the “background (spectral count, no-probe control)” value (gRNA of HCoV-OC43) was 7. The “target (unweighted spectral count in RNP capture)” value [1] was 53, the “background (unweighted spectral count in control)” value [1] was 1 and the “target (unweighted spectral count, OC43 Probe II capture)” value (HCoV-OC43 gRNA and sgRNA; 36 hpi) was 73. The “target (unweighted spectral count)” value (HCoV-OC43 gRNA and sgRNA; 12 hpi (type n_12_v)) was 22 and the “target (unweighted spectral count)” value (HCoV-OC43 gRNA and sgRNA; 24 hpi (type n_24_v)) was 34.

B2: PSPC1: host protein, UniProt Q8WXF1 (protein, UniProt Q8WXF1 1-523, looked up)
Paraspeckle component 1: MMLRGNLKQVRIEKNPARLRALESAVGESEPAAAAAMALALAGEPAPPAPAPPEDHPDEEMGFTIDIKSFLKPGEKTYTQRCRLFVGNLPTDITEEDFKRLFERYGEPSEVFINRDRGFGFIRLESRTLAEIAKAELDGTILKSRPLRIRFATHGAALTVKNLSPVVSNELLEQAFSQFGPVEKAVVVVDDRGRATGKGFVEFAAKPPARKALERCGDGAFLLTTTPRPVIVEPMEQFDDEDGLPEKLMQKTQQYHKEREQPPRFAQPGTFEFEYASRWKALDEMEKQQREQVDRNIREAKEKLEAEMEAARHEHQLMLMRQDLMRRQEELRRLEELRNQELQKRKQIQLRHEEEHRRREEEMIRHREQEELRRQQEGFKPNYMENREQEMRMGDMGPRGAINMGDAFSPAPAGNQGPPPMMGMNMNNRATIPGPPMGPGPAMGPEGAANMGTPMMPDNGAVHNDRFPQGPPSQMGSPMGSRTGSETPQAPMSGVGPVSGGPGGFGRGSQGGNFEGPNKRRRY
In the case of B2, the “target (unweighted spectral count of the protein in the RNP capture)” value (SARS-CoV-2 gRNA) is reported as 7, the “target (spectral count)” value (gRNA of HCoV-OC43) is reported as 12 and the “background (spectral count)” value (gRNA of HCoV-OC43) is reported as 1. The “target (spectral count, OC43 Probe I RNP capture)” value (gRNA of HCoV-OC43) was 20, the “background (spectral count, no-probe control)” value (gRNA of HCoV-OC43) was 1 and the “target (unweighted spectral count in RNP capture)” value [1] was 10. For the same molecule, the “background (unweighted spectral count in control)” value [1] was 1, the “target (unweighted spectral count, OC43 Probe II capture)” value (HCoV-OC43 gRNA and sgRNA; 36 hpi) was 14 and the “target (unweighted spectral count)” value (HCoV-OC43 gRNA and sgRNA; 12 hpi (type n_12_v)) was 4. The “target (unweighted spectral count)” value (HCoV-OC43 gRNA and sgRNA; 24 hpi (type n_24_v)) was 8, the “target (unweighted spectral count, OC43 Probe II)” value (HCoV-OC43 gRNA and sgRNA) was 14 and the “background (unweighted spectral count, no-probe control)” value (HCoV-OC43 gRNA and sgRNA) was 1. For the same molecule, the “target (spectral count)” value (HCoV-OC43 gRNA and sgRNA; type s_36_m, HCoV-OC43-infected HCT-8 cells, 36 hpi, Probe II) was 14 and the “background (spectral count)” value (HCoV-OC43 gRNA and sgRNA; type s_36_m, uninfected-probe control, 36 hpi, Probe II) was 1.

B3: THRAP3: host protein, UniProt Q9Y2W1 (protein, UniProt Q9Y2W1 2-955, looked up)
Thyroid hormone …: SKTNKSKSGSRSSRSRSASRSRSRSFSKSRSRSRSLSRSRKRRLSSRSRSRSYSPAHNRERNHPRVYQNRDFRGHNRGYRRPYYFRGRNRGFYPWGQYNRGGYGNYRSNWQNYRQAYSPRRGRSRSRSPKRRSPSPRSRSHSRNSDKSSSDRSRRSSSSRSSSNHSRVESSKRKSAKEKKSSSKDSRPSQAAGDNQGDEAKEQTFSGGTSQDTKASESSKPWPDATYGTGSASRASAVSELSPRERSPALKSPLQSVVVRRRSPRPSPVPKPSPPLSSTSQMGSTLPSGAGYQSGTHQGQFDHGSGSLSPSKKSPVGKSPPSTGSTYGSSQKEESAASGGAAYTKRYLEEQKTENGKDKEQKQTNTDKEKIKEKGSFSDTGLGDGKMKSDSFAPKTDSEKPFRGSQSPKRYKLRDDFEKKMADFHKEEMDDQDKDKAKGRKESEFDDEPKFMSKVIGANKNQEEEKSGKWEGLVYAPPGKEKQRKTEELEEESFPERSKKEDRGKRSEGGHRGFVPEKNFRVTAYKAVQEKSSSPPPRKTSESRDKLGAKGDFPTGKSSFSITREAQVNVRMDSFDEDLARPSGLLAQERKLCRDLVHSNKKEQEFRSIFQHIQSAQSQRSPSELFAQHIVTIVHHVKEHHFGSSGMTLHERFTKYLKRGTEQEAAKNKKSPEIHRRIDISPSTFRKHGLAHDEMKSPREPGYKAEGKYKDDPVDLRLDIERRKKHKERDLKRGKSRESVDSRDSSHSRERSAEKTEKTHKGSKKQKKHRRARDRSRSSSSSSQSSHSYKAEEYTEETEEREESTTGFDKSRLGTKDFVGPSERGGGRARGTFQFRARGRGWGRGNYSGNNNNNSNNDFQKRNREEEWDPEYTPKSKKYYLHDDREGEGSDKWVSRGRGRGAFPRGRGRFMFRKSSTSPKWAHDKFSGEEGEIEDDESGTENREEKDNIQPTTE
With B3 the “target (unweighted spectral count of the protein in the RNP capture)” value (SARS-CoV-2 gRNA) was 7, the “target (spectral count)” value (gRNA of HCoV-OC43) was 8 and the “background (spectral count)” value (gRNA of HCoV-OC43) was 1. The “target (spectral count, OC43 Probe I RNP capture)” value (gRNA of HCoV-OC43) was 10, the “background (spectral count, no-probe control)” value (gRNA of HCoV-OC43) was 2 and the “target (unweighted spectral count of the protein in the RNP capture experiment)” value [1] was 6. For the same molecule, the “back-ground (unweighted spectral count of the protein in the control experiment)” value [1] was 1, the “target (unweighted spectral count, OC43 Probe II capture)” value (HCoV-OC43 gRNA and sgRNA; 36 hpi) was 12 and the “target (unweighted spectral count, OC43 Probe II)” value (HCoV-OC43 gRNA and sgRNA) was 13. For the same molecule, the “background (unweighted spectral count, no-probe control)” value (HCoV-OC43 gRNA and sgRNA) was 2.

B4: U2AF2 (protein, UniProt P26368 2-475, looked up)
Splicing factor U2AF 65 kDa …: SDFDEFERQLNENKQERDKENRHRKRSHSRSRSRDRKRRSRSRDRRNRDQRSASRDRRRRSKPLTRGAKEEHGGLIRSPRHEKKKKVRKYWDVPPPGFEHITPMQYKAMQAAGQIPATALLPTMTPDGLAVTPTPVPVVGSQMTRQARRLYVGNIPFGITEEAMMDFFNAQMRLGGLTQAPGNPVLAVQINQDKNFAFLEFRSVDETTQAMAFDGIIFQGQSLKIRRPHDYQPLPGMSENPSVYVPGVVSTVVPDSAHKLFIGGLPNYLNDDQVKELLTSFGPLKAFNLVKDSATGLSKGYAFCEYVDINVTDQAIAGLNGMQLGDKKLLVQRASVGAKNATLVSPPSTINQTPVTLQVPGLMSSQVQMGGHPTEVLCLMNMVLPEELLDDEEYEEIVEDVRDECSKYGLVKSIEIPRPVDGVEVPGCGKIFVEFTSVFDCQKAMQGLTGRKFANRVVVTKYCDPDSYHRRDFW
B4 was tested, and the “target (unweighted spectral count of the protein in the RNP capture)” value (SARS-CoV-2 gRNA) was 7, the “target (spectral count, OC43 Probe I RNP capture)” value (gRNA of HCoV-OC43) was 8 and the “background (spectral count, no-probe control)” value (gRNA of HCoV-OC43) was 1. The “target (unweighted spectral count of the protein in the RNP capture experiment)” value [1] was 6, the “back-ground (unweighted spectral count of the protein in the control experiment)” value [1] was 1 and the “target (unweighted spectral count, OC43 Probe II capture)” value (HCoV-OC43 gRNA and sgRNA; 36 hpi) was 6. The “target (unweighted spectral count)” value (HCoV-OC43 gRNA and sgRNA; 12 hpi (type n_12_v)) was 5, the “target (unweighted spectral count, OC43 Probe II)” value (HCoV-OC43 gRNA and sgRNA) was 12 and the “background (unweighted spectral count, no-probe control)” value (HCoV-OC43 gRNA and sgRNA) was 1.

Source: patent US20230407373A1 (priority 2020, published 2023)
